Molecular target: West Nile virus envelope protein domain III (WNDIII, WNE-rDIII) (West Nile virus strain Wengler, UniProt P06935 P06935:582-692)
Experiment: ELONA; unmodified DNA unable to bind
Details: tags: 6xHis; with or without biotin acceptor peptide (BAP); label: 5' biotin

West Nile virus envelope protein domain III (WNDIII, WNE-rDIII), sequence (P06935 582-692, one chain of several): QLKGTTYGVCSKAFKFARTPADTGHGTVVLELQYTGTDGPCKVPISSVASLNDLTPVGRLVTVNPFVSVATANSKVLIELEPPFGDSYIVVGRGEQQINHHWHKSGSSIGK

Binder	binding result
BN-B03-DNA unmodified (ssDNA) DNA: GAAGGTGAAGGTCGGCTGAAGCATTAGACCTAAGCACGCTGCCACAAGTCCTGGTTCCCTGGCTTAGGTCTAATGCACCATCATCACCATCTTC	no binding
BN-B99-DNA unmodified (ssDNA) DNA: GAAGGTGAAGGTCGGCTGAAGCATCAGACCTAAGCCCAAATTGCCGCAGACTCGTTGTGAAGCTTAGGTCTAATGCACCATCATCACCATCTTC	no binding
